B1: XENP32567 (bispecific antibody)
chain 1: QVQLVQSGAEVKKPGASVKVSCKASGYTFTSYWMHWVRQAPGQGLEWMGMIHPNSDNTIYYEKFQGRVTMTVDKSISTAYMELSRLRSDDTAVYYCAIIITPVVPKFDYWGQGTLVTVSSASTKGPSVFPLAPSSKSTSGGTAALGCLVKDYFPEPVTVSWNSGALTSGVHTFPAVLQSSGLYSLSSVVTVPSSSLGTQTYICNVNHKPSDTKVDKKVEPKSCDKTHTCPPCPAPPVAGPSVFLFPPKPKDTLMISRTPEVTCVVVDVKHEDPEVKFNWYVDGVEVHNAKTKPREEEYNSTYRVVSVLTVLHQDWLNGKEYKCKVSNKALPAPIEKTISKAKGQPREPQVYTLPPSREEMTKNQVSLTCDVSGFYPSDIAVEWESDGQPENNYKTTPPVLDSDGSFFLYSKLTVDKSRWEQGDVFSCSVMHEALHNHYTQKSLSLSPGK
chain 2: not shown
chain 3: DIVMTQSPDSLAVSLGERATINCKASHDVGTSVAWYQQKPGQSPKLLIYWASTRHTGVPDRFTGSGSGTDFTLTISSLQAEDVAVYFCQQYYSYPLTFGAGTKLEIKRTVAAPSVFIFPPSDEQLKSGTASVVCLLNNFYPREAKVQWKVDNALQSGNSQESVTEQDSKDSTYSLSSTLTLSKADYEKHKVYACEVTHQGLSSPVTKSFNRGEC
B2: XENP44471 (bispecific antibody)
heavy 1: QVQLVQSGAEVKKPGASVKVSCKASGYTFTSYWMHWVRQAPGQGLEWMGWIHPNSDNTIYYEKFQGRVTMTVDKSISTAYMELSRLRSDDTAVYYCAIIITPVVPKFDYWGQGTLVTVSSASTKGPSVFPLAPSSKSTSGGTAALGCLVKDYFPEPVTVSWNSGALTSGVHTFPAVLQSSGLYSLSSVVTVPSSSLGTQTYICNVNHKPSDTKVDKKVEPKSCDKTHTCPPCPAPPVAGPSVFLFPPKPKDTLMISRTPEVTCVVVDVKHEDPEVKFNWYVDGVEVHNAKTKPREEEYNSTYRVVSVLTVLHQDWLNGKEYKCKVSNKALPAPIEKTISKAKGQPREPQVYTLPPSREEMTKNQVSLTCDVSGFYPSDIAVEWESDGQPENNYKTTPPVLDSDGSFFLYSKLTVDKSRWEQGDVFSCSVLHEALHSHYTQKSLSLSPGK
heavy 2: not shown
light 1: DIVMTQSPDSLAVSLGERATINCKASHDVGTSVAWYQQKPGQSPKLLIYWASTRHTGVPDRFTGSGSGTDFTLTISSLQAEDVAVYFCQQYSSYPLTFGAGTKLEIKRTVAAPSVFIFPPSDEQLKSGTASVVCLLNNFYPREAKVQWKVDNALQSGNSQESVTEQDSKDSTYSLSSTLTLSKADYEKHKVYACEVTHQGLSSPVTKSFNRGEC
light 2: DIVMTQSPDSLAVSLGERATINCKASHDVGTSVAWYQQKPGQSPKLLIYWASTRHTGVPDRFTGSGSGTDFTLTISSLQAEDVAVYFCQQYSSYPLTFGAGTKLEIKRTVAAPSVFIFPPSDEQLKSGTASVVCLLNNFYPREAKVQWKVDNALQSGNSQESVTEQDSKDSTYSLSSTLTLSKADYEKHKVYACEVTHQGLSSPVTKSFNRGEC
notes: also called XENP44471 MSLN (9 nM) x CD28 (180 nM) 2+1 Fab2-scFv-Fc
B3: XENP44477 (bispecific antibody)
heavy: QVQLVQSGAEVKKPGASVKVSCKASGYTFTSYWMHWVRQAPGQGLEWMGWIHPNSDNTIYYEKFQGRVTMTVDKSISTAYMELSRLRSDDTAVYYCAIIITPVVPKFDYWGQGTLVTVSSASTKGPSVFPLAPSSKSTSGGTAALGCLVKDYFPEPVTVSWNSGALTSGVHTFPAVLQSSGLYSLSSVVTVPSSSLGTQTYICNVNHKPSDTKVDKKVEPKSCGGGGSGGGGSQVQLVQSGAEVKKPGASVKVSCKASGYTFTSYWMHWVRQAPGQGLEWMGWIHPNSDNTIYYEKFQGRVTMTVDKSISTAYMELSRLRSDDTAVYYCAIIITPVVPKFDYWGQGTLVTVSSASTKGPSVFPLAPSSKSTSGGTAALGCLVKDYFPEPVTVSWNSGALTSGVHTFPAVLQSSGLYSLSSVVTVPSSSLGTQTYICNVNHKPSDTKVDKKVEPKSCDKTHTCPPCPAPPVAGPSVFLFPPKPKDTLMISRTPEVTCVVVDVKHEDPEVKFNWYVDGVEVHNAKTKPREEEYNSTYRVVSVLTVLHQDWLNGKEYKCKVSNKALPAPIEKTISKAKGQPREPQVYTLPPSREEMTKNQVSLTCDVSGFYPSDIAVEWESDGQPENNYKTTPPVLDSDGSFFLYSKLTVDKSRWEQGDVFSCSVLHEALHSHYTQKSLSLSPGK
scFv-Fc: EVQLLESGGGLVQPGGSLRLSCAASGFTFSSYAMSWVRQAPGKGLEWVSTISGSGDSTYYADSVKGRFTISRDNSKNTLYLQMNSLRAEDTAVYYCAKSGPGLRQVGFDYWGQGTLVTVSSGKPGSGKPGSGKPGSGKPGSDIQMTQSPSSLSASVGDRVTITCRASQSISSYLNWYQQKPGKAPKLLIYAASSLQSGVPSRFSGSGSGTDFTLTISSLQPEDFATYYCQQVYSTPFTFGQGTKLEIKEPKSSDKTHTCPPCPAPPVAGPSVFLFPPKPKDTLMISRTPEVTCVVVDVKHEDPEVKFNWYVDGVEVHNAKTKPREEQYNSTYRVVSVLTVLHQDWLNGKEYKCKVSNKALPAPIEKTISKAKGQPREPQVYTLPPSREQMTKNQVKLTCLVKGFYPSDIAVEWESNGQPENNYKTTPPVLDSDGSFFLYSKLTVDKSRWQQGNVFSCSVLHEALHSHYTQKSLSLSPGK
light 1: DIVMTQSPDSLAVSLGERATINCKASHDVGTSVAWYQQKPGQSPKLLIYWASTRHTGVPDRFTGSGSGTDFTLTISSLQAEDVAVYFCQQYSSYPLTFGAGTKLEIKRTVAAPSVFIFPPSDEQLKSGTASVVCLLNNFYPREAKVQWKVDNALQSGNSQESVTEQDSKDSTYSLSSTLTLSKADYEKHKVYACEVTHQGLSSPVTKSFNRGEC
light 2: DIVMTQSPDSLAVSLGERATINCKASHDVGTSVAWYQQKPGQSPKLLIYWASTRHTGVPDRFTGSGSGTDFTLTISSLQAEDVAVYFCQQYSSYPLTFGAGTKLEIKRTVAAPSVFIFPPSDEQLKSGTASVVCLLNNFYPREAKVQWKVDNALQSGNSQESVTEQDSKDSTYSLSSTLTLSKADYEKHKVYACEVTHQGLSSPVTKSFNRGEC
notes: also called XENP44477 MSLN (9 nM) x CD28 (180 nM) 2+1 Fab2-Fc x scFv-Fc
B4: XENP32552 (bispecific antibody)
chain 1: QVQLVQSGAEVKKPGASVKVSCKASGYTFTSYWMHWVRQAPGQGLEWMGWIHPNSDNTIYYEKFQGRVTMTVDKSISTAYMELSRLRSDDTAVYYCAIIITPVVPKFDYWGQGTLVTVSSASTKGPSVFPLAPSSKSTSGGTAALGCLVKDYFPEPVTVSWNSGALTSGVHTFPAVLQSSGLYSLSSVVTVPSSSLGTQTYICNVNHKPSDTKVDKKVEPKSCDKTHTCPPCPAPPVAGPSVFLFPPKPKDTLMISRTPEVTCVVVDVKHEDPEVKFNWYVDGVEVHNAKTKPREEEYNSTYRVVSVLTVLHQDWLNGKEYKCKVSNKALPAPIEKTISKAKGQPREPQVYTLPPSREEMTKNQVSLTCDVSGFYPSDIAVEWESDGQPENNYKTTPPVLDSDGSFFLYSKLTVDKSRWEQGDVFSCSVMHEALHNHYTQKSLSLSPGK
chain 2: not shown
chain 3: DIVMTQSPDSLAVSLGERATINCKASHDVGTSVAWYQQKPGQSPKLLIYWASTRHTGVPDRFTGSGSGTDFTLTISSLQAEDVAVYFCQQYSSYPLTFGAGTKLEIKRTVAAPSVFIFPPSDEQLKSGTASVVCLLNNFYPREAKVQWKVDNALQSGNSQESVTEQDSKDSTYSLSSTLTLSKADYEKHKVYACEVTHQGLSSPVTKSFNRGEC
B5: XENP44479 (bispecific antibody)
heavy: QVQLVQSGAEVKKPGASVKVSCKASGYTFTSYWMHWVRQAPGQGLEWMGWIHPNSDNTIYYEKFQGRVTMTVDKSISTAYMELSRLRSDDTAVYYCAIIITPVVPKFDYWGQGTLVTVSSASTKGPSVFPLAPSSKSTSGGTAALGCLVKDYFPEPVTVSWNSGALTSGVHTFPAVLQSSGLYSLSSVVTVPSSSLGTQTYICNVNHKPSDTKVDKKVEPKSCGGGGSGGGGSQVQLVQSGAEVKKPGASVKVSCKASGYTFTSYWMHWVRQAPGQGLEWMGWIHPNSDNTIYYEKFQGRVTMTVDKSISTAYMELSRLRSDDTAVYYCAIIITPVVPKFDYWGQGTLVTVSSASTKGPSVFPLAPSSKSTSGGTAALGCLVKDYFPEPVTVSWNSGALTSGVHTFPAVLQSSGLYSLSSVVTVPSSSLGTQTYICNVNHKPSDTKVDKKVEPKSCDKTHTCPPCPAPPVAGPSVFLFPPKPKDTLMISRTPEVTCVVVDVKHEDPEVKFNWYVDGVEVHNAKTKPREEEYNSTYRVVSVLTVLHQDWLNGKEYKCKVSNKALPAPIEKTISKAKGQPREPQVYTLPPSREEMTKNQVSLTCDVSGFYPSDIAVEWESDGQPENNYKTTPPVLDSDGSFFLYSKLTVDKSRWEQGDVFSCSVLHEALHSHYTQKSLSLSPGK
scFv-Fc: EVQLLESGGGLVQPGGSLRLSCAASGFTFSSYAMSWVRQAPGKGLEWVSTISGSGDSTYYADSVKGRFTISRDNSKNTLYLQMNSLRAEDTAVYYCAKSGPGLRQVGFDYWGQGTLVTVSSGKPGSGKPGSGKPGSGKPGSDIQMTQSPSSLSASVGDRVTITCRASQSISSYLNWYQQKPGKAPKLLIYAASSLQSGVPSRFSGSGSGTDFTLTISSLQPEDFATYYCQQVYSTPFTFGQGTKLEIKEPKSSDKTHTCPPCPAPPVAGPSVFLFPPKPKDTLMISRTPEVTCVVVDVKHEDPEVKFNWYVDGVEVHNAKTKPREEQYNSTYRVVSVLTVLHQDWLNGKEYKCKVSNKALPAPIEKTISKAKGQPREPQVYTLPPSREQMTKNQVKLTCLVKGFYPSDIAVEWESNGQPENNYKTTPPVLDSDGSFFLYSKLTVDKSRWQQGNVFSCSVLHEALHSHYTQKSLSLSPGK
light 1: DIVMTQSPDSLAVSLGERATINCKASHDVGQSVAWYQQKPGQSPKLLIYWASTRHTGVPDRFTGSGSGTDFTLTISSLQAEDVAVYFCQQYSSYPLTFGAGTKLEIKRTVAAPSVFIFPPSDEQLKSGTASVVCLLNNFYPREAKVQWKVDNALQSGNSQESVTEQDSKDSTYSLSSTLTLSKADYEKHKVYACEVTHQGLSSPVTKSFNRGEC
light 2: DIVMTQSPDSLAVSLGERATINCKASHDVGQSVAWYQQKPGQSPKLLIYWASTRHTGVPDRFTGSGSGTDFTLTISSLQAEDVAVYFCQQYSSYPLTFGAGTKLEIKRTVAAPSVFIFPPSDEQLKSGTASVVCLLNNFYPREAKVQWKVDNALQSGNSQESVTEQDSKDSTYSLSSTLTLSKADYEKHKVYACEVTHQGLSSPVTKSFNRGEC
notes: also called XENP44479 MSLN (90 nM) x CD28 (180 nM) 2+1 Fab2-Fc x scFv-Fc
B6: XENP44473 (bispecific antibody)
heavy 1: QVQLVQSGAEVKKPGASVKVSCKASGYTFTSYWMHWVRQAPGQGLEWMGWIHPNSDNTIYYEKFQGRVTMTVDKSISTAYMELSRLRSDDTAVYYCAIIITPVVPKFDYWGQGTLVTVSSASTKGPSVFPLAPSSKSTSGGTAALGCLVKDYFPEPVTVSWNSGALTSGVHTFPAVLQSSGLYSLSSVVTVPSSSLGTQTYICNVNHKPSDTKVDKKVEPKSCDKTHTCPPCPAPPVAGPSVFLFPPKPKDTLMISRTPEVTCVVVDVKHEDPEVKFNWYVDGVEVHNAKTKPREEEYNSTYRVVSVLTVLHQDWLNGKEYKCKVSNKALPAPIEKTISKAKGQPREPQVYTLPPSREEMTKNQVSLTCDVSGFYPSDIAVEWESDGQPENNYKTTPPVLDSDGSFFLYSKLTVDKSRWEQGDVFSCSVLHEALHSHYTQKSLSLSPGK
heavy 2: not shown
light 1: DIVMTQSPDSLAVSLGERATINCKASHDVGQSVAWYQQKPGQSPKLLIYWASTRHTGVPDRFTGSGSGTDFTLTISSLQAEDVAVYFCQQYSSYPLTFGAGTKLEIKRTVAAPSVFIFPPSDEQLKSGTASVVCLLNNFYPREAKVQWKVDNALQSGNSQESVTEQDSKDSTYSLSSTLTLSKADYEKHKVYACEVTHQGLSSPVTKSFNRGEC
light 2: DIVMTQSPDSLAVSLGERATINCKASHDVGQSVAWYQQKPGQSPKLLIYWASTRHTGVPDRFTGSGSGTDFTLTISSLQAEDVAVYFCQQYSSYPLTFGAGTKLEIKRTVAAPSVFIFPPSDEQLKSGTASVVCLLNNFYPREAKVQWKVDNALQSGNSQESVTEQDSKDSTYSLSSTLTLSKADYEKHKVYACEVTHQGLSSPVTKSFNRGEC
notes: also called XENP44473 MSLN (90 nM) x CD28 (180 nM) 2+1 Fab2-scFv-Fc

Key:
[1] = molecular target: T1, human mesothelin (MSLN) (human, UniProt Q13421 296-580, limits assumed); assay: BLI (Octet), multiple concentrations, bsAb in 1+1 Fab-scFv-Fc format; lower table, column 'human MSLN (M)'
T1 construct: Antigen of the Octet KD values

[2] = molecular target: T1, human mesothelin (MSLN); assay: BLI (Octet), bsAb in 1+1 Fab-scFv-Fc format
[3] = molecular target: T1, human mesothelin (MSLN); assay: label in the legend box: nominal affinity of the MSLN binding domain (paragraph 422 calls such label values KD); method not stated on the sheet
[4] = molecular target: T2, human CD28 (human, UniProt P10747 19-152, limits assumed); assay: label in the legend box: nominal affinity of the CD28 binding domain (paragraph 422 calls such label values KD); method not stated on the sheet
T2 construct: also called Cluster of Differentiation 28; Tp44

Row | Binder | Kd [1] [nM] | Kd [2] [nM] | Response [2] | koff [2] [s⁻¹] | kon [2] [M⁻¹ s⁻¹] | Kd [3] [nM] | Kd [4] [nM]
1 | B1 | 3.9 | 15.3 | 0.953 | 0.00887 | 578000 |  | 
2 | B2 |  |  |  |  |  | 9 | 180
3 | B3 |  |  |  |  |  | 9 | 180
4 | B4 | 9.2 | 30 | 0.915 | 0.0147 | 491000 |  | 
5 | B5 |  |  |  |  |  | 90 | 180
6 | B6 |  |  |  |  |  | 90 | 180

From patent US20230340128A1 (Xencor, published 2023)
